In article PMC9986708 one finds stoichiometry N data, which are given here for 2 substances.

Test [1] deals with apolipoprotein E ɛ2 (apoE ɛ2) (human (endogenous in plasma)) (UniProt P02649). The test can be described thus: non-reducing SDS-PAGE with western blot. On the technique in general: In western blotting, separated proteins are transferred to a membrane and probed.
Test [2] deals with apolipoprotein E ɛ3 (apoE ɛ3) (human (endogenous in plasma)) (UniProt P02649). The test can be described thus: non-reducing SDS-PAGE with western blot.

“apolipoprotein E ɛ2 (apoE ɛ2) (from UniProt P02649 19-317) (natural protein)”: in test [1], the stoichiometry N came to 2. In the case of “apolipoprotein E ɛ3 (apoE ɛ3) (from UniProt P02649 19-317) (natural protein)”, the stoichiometry N in test [2] came out at 2.

Usually stoichiometry N stands for the number of molecules, sites or subunits per partner or assembly.
